The record followed here is patent publication US20240293316.

The target of data set [1] is T1, NPL (micellar nanoparticles of PPAL, DEX-containing PPA with L-MMP peptide) (not fully specified).
T1 chain: GPLGLAGGERDG

Data set [2] deals with T2, NPR (micellar nanoparticles of PPAR, DEX-containing PPA with random peptide) (not fully specified).
T2 chain: GGSGSGSGWGERDGS

Data set [3] deals with T3, NPD (micellar nanoparticles of PPAD, DEX-containing PPA with D-MMP peptide) (not fully specified).
T3 chain: GPLGLAGGERDG

B1: thermolysin (protein)
chain: ITGTSTVGVGRGVLGDQKNINTTYSTYYYLQDNTRGNGIFTYDAKYRTTLPGSLWADADNQFFASYDAPAVDAHYYAGVTYDYYKNVHNRLSYDGNNAAIRSSVHYSQGYNNAFWNGSQMVYGDGDGQTFIPLSGGIDVVAHELTHAVTDYTAGLIYQNESGAINEAISDIFGTLVEFYANKNPDWEIGEDVYTPGISGDSLRSMSDPAKYGDPDHYSKRYTGTQDNGGVHINSGIINKAAYLISQGGTHYGVSVVGIGRDKLGKIFYRALTQYLTPTSNFSQLRAAAVQSATDLYGSTSQEVASVKQAFDAVGVK
For the protein B1, the “nanoparticle cleavage experiment (TEM after thermolysin treatment, 1 µM thermolysin : 100 µM polymer, 24 hours at 37° C.)” value was “underwent cleavage induced aggregation” in data set [1], “maintained their nanoparticle morphology” in data set [2] and “maintained their nanoparticle morphology” in data set [3].
